Target: T1, FLAG-LKB1 (UniProt Q15831 1-433)
T1 construct: Liver kinase B1 (LKB1); also called liver kinase B1; source: HEK293A (WT or MAP4K3 k.o.), transfected, in lysate
T1 sequence (looked up): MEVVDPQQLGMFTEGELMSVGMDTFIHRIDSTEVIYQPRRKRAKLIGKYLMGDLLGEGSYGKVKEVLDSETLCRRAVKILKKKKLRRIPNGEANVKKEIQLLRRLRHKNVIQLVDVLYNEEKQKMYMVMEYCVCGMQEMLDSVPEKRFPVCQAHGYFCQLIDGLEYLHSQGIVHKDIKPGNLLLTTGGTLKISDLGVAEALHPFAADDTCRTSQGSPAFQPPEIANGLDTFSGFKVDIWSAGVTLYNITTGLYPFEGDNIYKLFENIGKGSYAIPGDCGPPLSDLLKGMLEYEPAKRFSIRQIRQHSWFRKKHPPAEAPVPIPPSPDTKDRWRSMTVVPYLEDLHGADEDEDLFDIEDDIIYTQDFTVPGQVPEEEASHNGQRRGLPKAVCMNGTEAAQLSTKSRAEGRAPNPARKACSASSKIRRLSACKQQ
Experiment: co-IP; anti-FLAG IP from lysates of co-transfected HEK293A cells (WT or MAP4K3 k.o.), blot with anti-HA and anti-FLAG; lysis buffer 25 mM HEPES-KOH pH 7.4, 150 mM NaCl, 5 mM EDTA, 1% Triton X-100; 2 h at 4°C
Conditions: partners not purified

fold change of the co-precipitate against WT SIRT1 with LKB1 (in MAP4K3 k.o. cells): ~2 fold
B1: SIRT1-HA-T344D (enzyme, UniProt Q96EB6 1-747, looked up)
chain: MADEAALALQPGGSPSAAGADREAASSPAGEPLRKRPRRDGPGLERSPGEPGGAAPEREVPAAARGCPGAAAAALWREAEAEAAAAGGEQEAQATAAAGEGDNGPGLQGPSREPPLADNLYDEDDDDEGEEEEEAAAAAIGYRDNLLFGDEIITNGFHSCESDEEDRASHASSSDWTPRPRIGPYTFVQQHLMIGTDPRTILKDLLPETIPPPELDDMTLWQIVINILSEPPKRKKRKDINTIEDAVKLLQECKKIIVLTGAGVSVSCGIPDFRSRDGIYARLAVDFPDLPDPQAMFDIEYFRKDPRPFFKFAKEIYPGQFQPSLCHKFIALSDKEGKLLRNYDQNIDTLEQVAGIQRIIQCHGSFATASCLICKYKVDCEAVRGDIFNQVVPRCPRCPADEPLAIMKPEIVFFGENLPEQFHRAMKYDKDEVDLLIVIGSSLKVRPVALIPSSIPHEVPQILINREPLPHLHFDVELLGDCDVIINELCHRLGGEYAKLCCNPVKLSEITEKPPRTQKELAYLSELPPTPLHVSEDSSSPERTSPPDSSVIVTLLDQAAKSNDDLDVSESKGCMEEKPQEVQTSRNVESIAEQMENPDLKNVGSSTGEKNERTSVAGTVRKCWPNRVAKEQISRRLDGNQYLFLPPNRYIFHGAEVYSDSEDDVLSSSSCGSNSDSGTCQSPSLEEPMEDESEIEEFYNGLEDEPDVPERAGGAGFGTDGDDQEAINEAISVKQEVTDMNYPSNKS
notes: Derived from the SIRT1-HA construct; also called SIRT1-T344D; SIRT1-T344D-HA; source: MAP4K3 k.o; HEK293A (M4 line), transfected, in lysate
